Assay: label from the status in PepcDB records

Sequence | protein production
MNYGFVKVAAAVPRVKVADCKFNSERLEGLITIAEGKGVQILTFPEMCITGYTCGDLFAQQLLLEQAEMALIQILNSTRQLDIISILGMPVVVNSTVINAAVVIQKGKILGVVPKTYLPNYKEFYEQRWFTSALQVSENSVRLCGQIVPMGNNLLFETAETTFGIEICEDLWATVPPSSSLALQGAEIIFNLSADDEGIGKHNYLCSLISQQSARCISGYVFSSSGFGESTTDVVFAGNGLIYENGYLLARSERFCMEEQLIINEIDVECIRAERRVNTTFAANKANCPGKEAVRISTEFVNSKDLNLTRTFNPHPFVPQGNELNSRCEEIFSIQIAGLAQRLLHTGAKTAVIGISGGLDSTLALLVCVKTFDKLGLSRKDILGITMPGFGTTDRTYHNAIDLMNSLGVSIREISIREACIQHFKDIGHDLNIHDVTYENSQARERTQILMDIANQTWGMVIGTGDLSELALGWATYNGDHMSMYGVNAGIPKTLVKHLVQWVAENGMDETSKATLLDIVDTPISPELEHHHHHH | not failed
MATGKISKRSIDALRPNASNQFLWDTDLKGFGAKITPAGAISYVLQFRMGGREASTRRYTIGAHGSPWTPTTARAEAERLLLLIGQGVDPVDADKQRRREAVDLAFANYAERFARSCKGDGWRRLVERAIRLYLTPVLGKKALPAINRTDVVSVFDNMPADQVANRRNVFAVLRRLFRWAVSRGDLDRSPMEGMETPPPVKARERWLSDDELRLIWNAAPECHRCFGPIVRLLIATGQRREEVSGMRWSELSRTDKLWTLPGDRTKNGEPNTIPLNDLAVAELDAAAGGDKWPRKGRVFATSTGAGFTGYAKGKDKLDRLIELAEGEPLPPWRLHDLRRTLATNFQRLGVRFEVTEAVLNHVGGSRSGVAGIYQRHDWKEEKRQALDDWNSHLEQILMRPSPGNRQAASQAAADLDK | failed
MGSVSNQQFAGGCAKAAEEAPEEAPEDAARAADEPQLLHGAGICKWFNVRMGFGFLSMTARAGVALDPPVDVFVHQSKLHMEGFRSLKEGEAVEFTFKKSAKGLESIRVTGPGGVFCIGSERRPKGKSMQKRRSKGDRCYNCGGLDHHAKECKLPPQPKKCHFCQSISHMVASCPLKAQQGPSAQGKPTYFREEEEEIHSPTLLPEAQN | failed
LTTTSADYIGPIVEHQYLQWDNWPRLGEILRSEKPLAFQQESRFAHDTRARDAFNDAMVRLSQPMVDVVSELGVFARARTVIDLAGGHGTYLAQVLRRHPQLTGQIWDLPTTRDAARKTIHAHDLGGRVEFFEKNLLDARNFEGGAADVVMLNDCLHYFDAREAREVIGHAAGLVKPGGALLILTMTMNDDRVTPALSADFSLHMMVNTNHGELHPTPWIAGVVRDAGLAVGERSIGRYTLLIGQRSSGEV | failed
MSTPTAADRAKALERKNEGNVFVKEKHFLKAIEKYTEAIDLDSTQSIYFSNRAFAHFKVDNFQSALNDCDEAIKLDPKNIKAYHRRALSCMALLEFKKARKDLNVLLKAKPNDPAATKALLTCDRFIREERFRKAIGGAENEAKISLCQTLNLSSFDANADLANYEGPKLEFEQLYDDKNAFKGAKIKNMSQEFISKMVNDLFLKGKYLPKKYVAAIISHADTLFRQEPSMVELENNSTPDVKISVCGDTHGQFYDVLNLFRKFGKVGPKHTYLFNGDFVDRGSWSCEVALLFYCLKILHPNNFFLNRGNHESDNMNKIYGFEDECKYKYSQRIFNMFAQSFESLPLATLINNDYLVMHGGLPSDPSATLSDFKNIDRFAQPPRDGAFMELLWADPQEANGMGPSQRGLGHAFGPDITDRFLRNNKLRKIFRSHELRMGGVQFEQKGKLMTVFSAPNYCDSQGNLGGVIHVVPGHGILQAGRNDDQNLIIETFEAVEHPDIKPMAYSNGGFGL | not failed
MSAPLPLCVIGAGCVGMRHVEVARRSPQIRLTAVVEPVETRRRALAESGLVAVATLEEVPRETRAAIVATPTPDHLATGLAALSRGWAVLVEKPTAGTMDDARVLLGAADRAGLPLYVGHHRRCHPFSRAAREALGGIGDLVGLQGLWSLRKHDSYYAEDWRRQAGAGPLMTNLSHEIDLLRFLVGDMVEVSALTSSARRGLVVPDTAALAFRFADGALGSFLISDAGASPWSFEAACAENPAIAVSGQDYIRITGTAGALEFPSLTRWGRSAPGEIEWSKPLARAAGAGFARVDPLLEQINRFAAVLEGAQDDVLCTGTDGNAALEMTLAAALSGKLGRPVRAHEVPGDYSGI | failed
MPLLPHNRTALGFLLRHLIAGLTGGLVFGGLILALDISGLRSMLMASQDGLLYTLLLFFGLSVTFGGVAMGVGVMSLGEDKN | failed
MSLAQYPVIGIDDDEFATAKKLITKQEVRAVTLSKLRLQDDLVMWDIGAGSASVSIEASNLMPNGRIFALERNPQYLGFIRDNLKKFVARNVTLVEAFAPEGLDDLPDPDRVFIGGSGGMLEEIIDAVDRRLKSEGVIVLNAVTLDTLTKAVEFLEDHGYMVEVACVNVAKTKGLTEYKMFESHNPVYIITAWKSDEGHHHHHH | not failed
MPFNTLAPQFSRLGPGLVLSIAATGLAFAIHTVFPAVPAMTLAVALGLLSANIPGTAVLTAGRARPGLDFAGKHLMRAGIVLLGLKVSIGDVIGLGWLSLLLIAGVVLLSFAGTYGLARLLRLPGEAALLIATGFSICGASAIGAMAAVRRIKHQDTVLPVALVTLCGTLAIGVLPLLMHPLNLNPEQFGAWTGASVHDVGQVVATAQTAGTSALAIAVVVKLTRVVLLAPVAAAAGVHQRILHVRERSNGKGDAAKSIDGRFPPIVPLFVVGFLSMVAVRSLGWVPPVGLEIAAAVQDILLATALFGLGSAVRVRTLIHTGGRAILVALGSWLLIASLGLGAAWIMIR | failed
MNYYGTSMWASDNNTASNSDSSLNLLGILLLASENNKLINNTVLTNLYGVNLMAESTGIGDKTGPSENILASNIISYNLGTGILFDESYGNLIYNNSFDNIWNVEDESLNTWNSSEIGNYWSDYEGEDADGDGVGDTPYLINSHTGSMDYLPVTRSSDFPELEHHHHHH | failed
EQITHWIVVQQDTTEQQRVQQAMRTQRDRLQRMQGVAQTGGWEYDPKSDSFTGSNEFYRLIGLPQSTNFDLERAFQLYPPSVRGRVKTAAQRCLEDGSPFDMEVPLVSATGQHREVRVRGSAEREEG | failed
MTDQRFKIVFSGELMPDASLETVKDNLARLFKSEPGKIDALFGGRPVVLKRELPEAEAERYLTALRQAGANAYKEVDLAASLSLVETPDHNPQVAEETPAQDLPPMTCPKCGHEQPSGAECSACGVIIEKYLARQAQLGENAAPAATAAAGASPYTPPSAQVGDTLPEFGELNVFTTNGRIGRLRYLGWSMAMTLCFLVIMGLGFLLGETVGVAVTALASIAFIVIAVMIGVQRLHDLGWSGWLWLLNFVPFVGSVFGILMLVLPGSTGANRYGPPPPANSTGVKVLASLIILLPIVGIIAAIALPSYQGYLERANYDGGASAPADPYTTDEQAAAAAAEADEAATAAAEAMEDDDQQ | failed
MEKNLLRSALKIFEKKDLSLLAYSGRSIFESKDSGLKPVVELFKRFDNLEGSLVIDKMVGKAAASFLLKMKPDHIHAKVISKPALKLMNEYGQSFSYDEKIPFVLGKDGKSMCPFEKLVLEMDDPEEIIRIVLSKFTSL | not failed
MSASAHIAQPDTRQQSRSDTPQAVAALAGRVLLSAIFLLSGVSKLAAPAMMIGYIGSVGLPFPQLALALAVIVEIGGGLALVAGWRTRTVAALLALFSVVTALAFHNALGDQNQFIHFFKNLAMAGGLLQVVAFGAGRFSLDARRR | failed
MLRSLLVPLFSNAASSTDDHGITLPQYQVFINFRGDELRNSFVGFLVKAMRLEKINVFTDEVELRGTNLNYLFRRIEESRVAVAIFSERYTESCWCLDELVKMKEQMEQGKLVVVPVFYRLNATACKRFMGAFGDNLRNLEWEYRSEPERIQKWKEALSSVFSNIGLTSDIRRYNLINKNMDHTSEFLYIVLILNFFSEISDMTGLTTSYQFLLMMKSNLISYDIYIYPTKFCVNVFIGV | failed
MKFGRRATSRTEPGKRCVARPRYNSAMSEFTDSAAGRSATSPADASSSALRRLRAIQPLPDQLISQIAAGEVVERPASVVKELVENALDAGAGTLRILLDEGGVKRISITDDGCGIPAAELPLALMRHATSKIRSLAELEAVATLGFRGEALASIASVAEMFITSRTEDDAHATRIDAQTGVLAPAAGTRGTTIEVRELYFSTPARRKFLKSEQTEFGHCLEMIRRAALARPDVAISVLHNGRAVEHWNASEPAARVAKILGDGFATAHLPLDERAGPLAVYGCAGLPTASRGRADQQYFFVNGRFVRDKLLTHAVRAAYEDVLHGDRYPSYVLFLDLPPEAVDVNVHPSKIEVRFRDSRSIHQFVFHAVQRALARHAGASPETTAGGHAAHLSPVEPAQAGSPAAPSASFVRPDAAAAGAGVGHPAPGNTWLRQSRMTQGTLPVAQPLALYDALFGRKDSGAGTPHGTTGVLEARDAPDAPGAPLFASAPGGAAMPAFSAAGASDPAMHDEQPLGFAVGQIHGIYVLAQNARGLVIVDMHAAHERILYEQFKRALADRTVAVQTLLIPVSMTATPVEVGTAEEERETLDALGFDLAVLSPTTLAIRAVPALLKDADLQALARAVLADLHAFGGSRVLTERQHELLGTLACHHAVRANRRLTLDEMNALLRQMEATERADQCNHGRPTWYQLTLGDLDKLFMRGQ | failed
MMDNDNSLNKRPTFKRALRNISMTSIFITMMLIWLLLSVTSVLTLKQYAQKNLALTAATMTYSLEAAVVFADGPAATETLAALGQQGQFSTAEVRDKQQNILASWHYTRKDPGDTFSNFISHWLFPAPIIQPIRHNGETIGEVRLTARDSSISHFIWFSLAVLTGCILLASGIAITLTRHLHNGLVEALKNITDVVHDVRSNRNFSRRVSEERIAEFHRFALDFNSLLDEMEEWQLRLQAKNAQLLRTALHDPLTGLANRAAFRSGINTLMNNSDARKTSALLFLDGDNFKYINDTWGHATGDRVLIEIAKRLAEFGGLRHKAYRLGGDEFAMVLYDVQSESEVQQICSALTQIFNLPFDLHNGHQTTMTLSIGYAMTIEHASAEKLQELADHNMYQAKHQRAEKLVR | failed
MKIRTIARASLLSAAIALAVTGCNSEPDMSQEDIQYISHVDQARFFQRQGELKASTIEARSAIDLQPNRTAPYFVIIHNLLTAGDAANAERQLDKLLENTNIEELGQSERNQAALIRAEARILQGKHQEALESLDQISSPSPDQQLQADNLKGRAWLTSGDFDKAEEAYQSAFDKHSNNVVAMVGLSRVATAKGDFDTAKERLEKAIEIDAEHEDVWLWRAQFAHAQQQWAEAEQAYIRALETIGQFDVMTFRKYQTISALITVLREQGKSAEAFVYEEILAKSGPGTIKSNLEAAASAYNDGDLNTAARYLQEVLNQVPNHQQSALMLGVIRYRQGRPEEAEKLLAPLADMENADEVRKLLAATRISMRDPAGAKSLLEDLEGSDADPQTLALVGIASLASGDDQSGRQLLEKSLELAPDNHNLRLRYAAYLTQTRDFANAIKQARQIPSDATEALQATILTSQAQALSGNSQTATDTLDTWLKANPDSMAALIARGNLASSLNNTQQAASYFERAHKQHPEEAAPLVALGNLAREQQNTEQAIAWYRQAVETNPNNLPAIQALAGVMKRDQLTGLMQEISSKHPEANGPRLILLESALINNDTLQADELTARLMEREREDQPSPAEPLVAAVYEGIATQMAQRENSERALEILSRGRTLFPENEAIALKVAAIEFSNGNATAARSALQDAKQHHPDSPAPYQVEASYYENQGEHQQAAELYQLALAKRQTAELAIAHARALSNAGRSQNSIEALQEANKQFPNNSSILLTLALQTQQAGQTDAAIEHYQQVLQLTPDNALALNNLAWLYYEAGNSEAASLAKRAYELVPENAAIADTYGWILFEAGEHEQSLAVLERAHSLAPDSQEIAMHLAEAYRATGRTDAAQQIMDKFSTGNNG | failed
